Values joined by “and” are separate entries in the source; they are usually repeats but may differ in a detail not shown here. Identical values can stand only once. Residues, ends and D or L forms follow the SMILES beside them.
Experiments:
rhGCPII(K699S) mutant = rhGCPII(K699S) mutant (Homo sapiens, UniProt Q04609, K699S); assay: Saturation kinetics of substrate hydrolysis by mutated GCPII; format: biochemical; details: kinetic assay
[1] = target: T1, recombinant human GCPII (rhGCPII) (Homo sapiens, UniProt Q04609); assay: Saturation kinetics of dipeptide hydrolysis by wild-type rhGCPII; format: biochemical; details: ratio of catalytic efficiency
T1 sequence (Q04609 44-750): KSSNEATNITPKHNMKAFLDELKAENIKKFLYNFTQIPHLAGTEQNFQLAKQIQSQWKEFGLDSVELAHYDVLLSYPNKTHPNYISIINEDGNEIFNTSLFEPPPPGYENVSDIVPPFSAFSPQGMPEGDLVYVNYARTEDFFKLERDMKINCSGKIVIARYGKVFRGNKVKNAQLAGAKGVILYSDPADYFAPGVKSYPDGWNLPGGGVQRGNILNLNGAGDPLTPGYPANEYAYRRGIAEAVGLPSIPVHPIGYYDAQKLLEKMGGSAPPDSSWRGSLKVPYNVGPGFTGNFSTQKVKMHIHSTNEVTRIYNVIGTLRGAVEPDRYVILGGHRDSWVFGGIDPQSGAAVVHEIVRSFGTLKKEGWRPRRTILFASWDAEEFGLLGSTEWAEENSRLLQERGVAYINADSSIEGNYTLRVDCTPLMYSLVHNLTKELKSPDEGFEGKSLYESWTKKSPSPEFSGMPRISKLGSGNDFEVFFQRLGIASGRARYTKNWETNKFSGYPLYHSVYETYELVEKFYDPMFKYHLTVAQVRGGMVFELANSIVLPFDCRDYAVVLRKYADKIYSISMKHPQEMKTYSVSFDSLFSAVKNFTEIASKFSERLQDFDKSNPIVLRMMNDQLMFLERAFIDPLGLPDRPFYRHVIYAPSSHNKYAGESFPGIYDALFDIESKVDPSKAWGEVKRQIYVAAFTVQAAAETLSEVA

[2] = target: T1, recombinant human GCPII (rhGCPII); details: cited from earlier work
[3] = system: CC[C@H](NC(=O)[C@H](CC(=O)O)NC(C)=O)C(=O)O; assay: Saturation kinetics of dipeptide hydrolysis by wild-type rhGCPII; format: biochemical, human; details: other: wild-type rhGCPII, Table 1; 37.0 °C
[4] = system: CCCCCCCC(NC(=O)[C@H](CC(=O)O)NC(C)=O)C(=O)O; assay: as above; format: biochemical, human; details: 37.0 °C
[5] = system: CCCCCCC(NC(=O)[C@H](CC(=O)O)NC(C)=O)C(=O)O; assay: as above; format: biochemical, human; details: other: wild-type rhGCPII, Table 1; 37.0 °C
[6] = system: CCC[C@H](NC(=O)[C@H](CC(=O)O)NC(C)=O)C(=O)O; assay: as above; format: biochemical, human; details: other: wild-type rhGCPII, Table 1; 37.0 °C
[7] = system: CC(=O)N[C@@H](CC(=O)O)C(=O)N[C@@H](C)C(=O)O; assay: as above; format: biochemical, human; details: other: wild-type rhGCPII, Table 1; 37.0 °C
[8] = system: CSCC[C@H](NC(=O)[C@H](CC(=O)O)NC(C)=O)C(=O)O; assay: as above; format: biochemical, human; details: other: wild-type GCPII, Table 2; 37.0 °C
[9] = system: CCCCCC(NC(=O)[C@H](CC(=O)O)NC(C)=O)C(=O)O; assay: as above; format: biochemical, human; details: other: wild-type rhGCPII, Table 1; 37.0 °C
[10] = system: CCCC[C@H](NC(=O)[C@H](CC(=O)O)NC(C)=O)C(=O)O; assay: as above; format: biochemical, human; details: other: wild-type rhGCPII, Table 1; 37.0 °C
rhGCPII = details: WT rhGCPII, radioenzymatic assay with 3H-NAAG; cited from earlier work
[11] = other: wild-type GCPII, Table 2
[12] = other: wild-type rhGCPII, Table 1

rhGCPII(K699S) mutant, sequence (Q04609 44-750 K699S): as the sequence (Q04609 44-750) above, with K656S counted along it

Q: Which “stronger binding to K699S mutant compared to wild-type GCPII” value (rhGCPII(K699S) mutant) does the source give for `CCCCCCCC(NC(=O)[C@H](CC(=O)O)NC(C)=O)C(=O)O` (some centres unmarked) [8S, Ac-Asp-Ano] here?
A: Its value is “approximately 3 fold”.

Q: What about the “efficiency of rhGCPII hydrolysis compared to Ac-Asp-Ala” value [1] of the same compound?
A: Its value is “approximately 20 fold”.

Q: With `CSCC[C@H](NC(=O)[C@H](CC(=O)O)NC(C)=O)C(=O)O` [NAAM, N-acetyl-aspartyl-methionine] (Ac-Asp-Met-OH) as the compound, how does the Km [2] read?
A: The Km was 24.8 ± 2.9 µM.

Q: With “recombinant human GCPII (rhGCPII) (Homo sapiens)” as the compound, how does the Km [3] read?
A: The Km was 29 ± 8 µM.

Q: And the kcat [3]?
A: The kcat was 0.25 ± 0.03 s⁻¹.

Q: What about the kcat/Km [3] of the same compound?
A: The kcat/Km was 8600 M⁻¹ s⁻¹.

Q: And the Km [4, 11]?
A: The Km was 10.4 ± 2.5 µM.

Q: What about the kcat [4, 11] of the same compound?
A: The kcat was 0.62 ± 0.10 s⁻¹.

Q: What about the kcat/Km [4, 11] of the same compound?
A: Its kcat/Km is 59600 M⁻¹ s⁻¹.

Q: What about the Km [4, 12] of the same compound?
A: The Km was 10 ± 2 µM.

Q: What about the kcat [4, 12] of the same compound?
A: Its kcat is 0.62 ± 0.1 s⁻¹.

Q: And the kcat/Km [4, 12]?
A: Its kcat/Km is 62000 M⁻¹ s⁻¹.

Q: And the Km [5]?
A: The Km was 8 ± 2 µM.

Q: And the kcat [5]?
A: Its kcat is 0.6 ± 0.03 s⁻¹.

Q: And the kcat/Km [5]?
A: Its kcat/Km is 75000 M⁻¹ s⁻¹.

Q: And the Km [6]?
A: The Km was 31 ± 12 µM.

Q: And the kcat [6]?
A: The kcat was 0.42 ± 0.05 s⁻¹.

Q: What about the kcat/Km [6] of the same compound?
A: The kcat/Km was 13500 M⁻¹ s⁻¹.

Q: And the Km [7]?
A: Its Km is 85 ± 21 µM.

Q: What about the kcat [7] of the same compound?
A: The kcat was 0.23 ± 0.05 s⁻¹.

Q: And the kcat/Km [7]?
A: The kcat/Km was 2700 M⁻¹ s⁻¹.

Q: What about the Km [8] of the same compound?
A: The Km was 7.5 ± 1.6 µM.

Q: What about the kcat [8] of the same compound?
A: The kcat was 0.32 ± 0.07 s⁻¹.

Q: And the kcat/Km [8]?
A: Its kcat/Km is 42700 M⁻¹ s⁻¹.

Q: And the Km [9]?
A: The Km was 12 ± 1 µM.

Q: And the kcat [9]?
A: Its kcat is 0.44 ± 0.04 s⁻¹.

Q: And the kcat/Km [9]?
A: Its kcat/Km is 36700 M⁻¹ s⁻¹.

Q: What about the Km [10] of the same compound?
A: The Km was 19 ± 4 µM.

Q: And the kcat [10]?
A: The kcat was 0.24 ± 0.01 s⁻¹.

Q: What about the kcat/Km [10] of the same compound?
A: The kcat/Km was 12600 M⁻¹ s⁻¹.

Q: Which Km (rhGCPII) does the source give for `CC(=O)N[C@@H](CC(=O)O)C(=O)N[C@@H](CCC(=O)O)C(=O)O` [NAAG, N-acetyl-aspartyl-glutamate] (Ac-Asp-Glu-OH) here?
A: Its Km is 1.2 ± 0.5 µM.

Q: And the kcat (rhGCPII)?
A: The kcat was 1.1 ± 0.2 ^# s^-1 and 1.1 ± 0.2 ^* s^-1.

— publication PMC3222833 (Journal of medicinal chemistry, 2011)
